The text below walks through data of patent US20240148890A1 (SUTRO BIOPHARMA, published 2024).

The assay deals with folate receptor alpha (FOLR1) (human, UniProt P15328 25-234). Put plainly: cell-based or functional assay.
Sequence of folate receptor alpha (FOLR1) (P15328 25-234 limits assumed): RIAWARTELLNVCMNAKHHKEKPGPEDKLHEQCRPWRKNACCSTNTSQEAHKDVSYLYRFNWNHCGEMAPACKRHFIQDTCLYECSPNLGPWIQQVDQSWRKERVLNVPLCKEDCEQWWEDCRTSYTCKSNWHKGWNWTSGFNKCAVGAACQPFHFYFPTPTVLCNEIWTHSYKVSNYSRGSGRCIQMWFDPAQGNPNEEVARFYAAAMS

B1: Conjugate P (FOLR1-directed site-specific antibody-drug conjugate; IgG antibody with VH region SEQ ID NO: 362 and VL region SEQ ID NO: 367, conjugate formula … (antibody, V domains shown)
VH: EVQLVESGGGLVQPGGSLRLSCAASGFNIRTQSIHWVRQAPGKGLEWIGDIFPIDGITDYADSVKGRFTISADTSKNTAYLQMNSLRAEDTAVYYCARGSWSWPSGMDYYLDYWGQGTLVTVSS
VL: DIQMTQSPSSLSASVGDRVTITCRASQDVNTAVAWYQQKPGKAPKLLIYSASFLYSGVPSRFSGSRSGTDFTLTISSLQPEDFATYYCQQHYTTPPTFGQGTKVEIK
modifications: para-azidomethylphenylalanine residues substituting for Y180 and F404 (printed as 'of each VH region'; elsewhere given as heavy chain positions), each linked to the hemiasterlin linker-payload of conjugate formula P (n=4)
Take B1: the “in vitro cytotoxicity IC50 against CBF/GLIS-transduced CB HPSCs (which upregulate FOLR1)” value amounted to 4.2 nM and the “in vitro cytotoxicity IC50 against MV4;11 AML cell line engineered to express FOLR1 (MV4;11 FOLR1+)” value was 0.1 nM.
